Measured values reported in the nanobody polyreactivity screen of Harvey et al. (2022).

Test: yeast display, Sf9 membrane polyspecificity reagent, FACS + sequencing; frameworks hold sequencing errors
Method in brief: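 Sorting gates, low and high (top ~1%), were placed on anti-HA fluorescence to track expression and on streptavidin fluorescence to track reagent binding. A clone's polyreactivity label is taken from the gate it came out of. The reagent was 10% biotinylated, detergent-solubilized Sf9 membrane, applied for 1 hour at 4 °C to galactose-induced yeast display cells.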

Sequence | polyreactivity (PSR sort gate)
QVQLVESGGGLVQAGGSLRLSCAASGFIFDPYAMGWYRQAPGKERELVARITWSGGRTYYADSVKGRFTISRDNAKNTVYLQMNSLKPEDTAVYYCNADVYGFDYWGQGTQVTVSS | high polyreactivity
QVQLVESGGGLVQAGGSLRLSCAASGFIFDQNAMGWYRQAPGKERELVAAISKRGGSTYYADSVKGRFTISRDTAKNTVYLQMNSLKPEDTAVYYCATRSWGPYYYGYNHWGQGTQVTVSS | high polyreactivity
QVQLVESGGGLVQAGGSLRLSCAASGFIFDQYAMGWYRQAPGKERELVAAISSGGRTYYADSVKGRFTISRDNAKNTVYLQMNSLKPEDTAVYYCAAKSWTDSRVTGYWGQGTQVTVSS | high polyreactivity
QVQLVESGGGLVQAGGSLRLSCAASGFIFDQYDMGWYRQAPGKERELVAAISDSGGSTYYADSVKGRFTISRDNAKNTVYLQMNSLKPEDTAVYYCAAGSYLAFGGLWFYYWGQGTQVTVSS | high polyreactivity
QVQLVESGGGLVQAGGSLRLSCAASGFIFDSNPIGWYRQAPWKEREVVAAISSSGGSTYYADSVKGRFTISRDNAKNTVYLQMKSLKPEDTAVYYCGAESQRFISSSEVYWGQGTQVTVSS | low polyreactivity
QVQLVESGGGLVQAGGSLRLSCAASGFIFDSYAMGWYRQAPGKERELVAAISWSGGRTYYADSVKGRFTISRDNAKNTVYLQMNSLKPEDTAVYYCNVRTKLSTSYDYWGQGTQVTVSS | high polyreactivity
QVQLVESGGGLVQAGGSLRLSCAASGFIFDTYAMGWYRQAPGKERELVAAISRSGVRTYYADSVKGRFTISRDNAKNTVYLQMNSLTPEDTAVYYCNAALNRYHFGRAVPGDYWGQGTQVTVSS | high polyreactivity
QVQLVESGGGLVQAGGSLRLSCAASGFIFDTYAMGWYRQAPGKERELVARINYSGGSTRYADSVKGRFTISRDNAKNTVYLQMNSLKPEDTAVYYCAAREFSYGFYYWGQGTQVTVSS | high polyreactivity
QVQLVESGGGLVQAGGSLRLSCAASGFIFDVNAMGWYRQAPGKERELVATISKRGGTTYYADSVKGRFTISRDNAKNTVYLQMNSLKPEDTAVYYCAARHQTLRSYRYDYWGQGTQVTVSS | low polyreactivity
QVQLVESGGGLVQAGGSLRLSCAASGFIFDVNAMGWYRQAPGKETELVAAISKSGRRTYYADSVKGRFTISRDNAKNTVYLQMNSLKPEDTAVYYCAASLRASPSFGYWGQGTQVTVSS | high polyreactivity
QVQLVESGGGLVQAGGSLRLSCAASGFIFDVYAMGWYRQAPGKERELVAAISRSGGSTHYADSVKGRFTISRDNAKNTVYLQMNSLKPEDTAVYYCATGIRVGYAKYDYWGQGTQVTVSS | high polyreactivity
QVQLVESGGGLVQAGGSLRLSCAASGFIFDVYAMGWYRQAPGKERELVAAITSGDGTNYADSVKGRFTISRDNAKNTVYLQMNSLKPEDTAVYYCAADDGVTYRGIIFSYWGQGSQVTVSS | low polyreactivity
QVQLVESGGGLVQAGGSLRLSCAASGFIFDWNTMGWYRQAPGKERELVAAITESSGSTYYADSVKGRFTISRDNAKNTVYLQMNSLKPEDTAVYYCAADFSYVYYLYDYWGQGTQVTVSS | low polyreactivity
QVQLVESGGGLVQAGGSLRLSCAASGFIFDWYAMGWYRQAPGKERELVAAITRSGGNTYYADSVKGRFTISRDNAKNTVYLQMNSLKPEDTAVYYCNAVAAVYAYGHDYWGQGTQVTVSS | high polyreactivity
QVQLVESGGGLVQAGGSLRLSCAASGFIFDYNAMGWYRQAPGKERELVDAISGGGGSTYYADSVKGRFTISRDNAKNTVFLLMNSLKPEDTSVYDCAKRYRGGYWGQGSQVTVSS | high polyreactivity
QVQLVESGGGLVQAGGSLRLSCAASGFIFDYYAMGWYRPAPAKERELVAAISCRGGTTYYADSVKGRFTISRDNAKNTVYLQMNSLKPEDTAVYYCAAGRFYGFGYGYWGQGTQVTVSS | high polyreactivity
QVQLVESGGGLVQAGGSLRLSCAASGFIFDYYAMGWYRQAPGKERELVAAITRDGGGTYYADSVKGRFTISRDNAKNTVYFQMNSLKPEDTAVYYCAARTAYYHGSKYYYRGQGTQVTVSS | high polyreactivity
QVQLVESGGGLVQAGGSLRLSCAASGFIFDYYAMGWYRQAPGKERELVAAITSRGGSTYYADSVKGRFTISRDNAKNTVYLQMNSLKPEDTAVYYCAARRRSAEYNYWGQGTQVTVSS | high polyreactivity
QVQLVESGGGLVQAGGSLRLSCAASGFIFEPNAMGWYRQAPGKERELVAAISWSGGSTYYADSVKGRFTISRDNAKNTVYLQMNSLKPEDTAVYYCNAAVRGVGELDYWGQGTQVTVSS | high polyreactivity
QVQLVESGGGLVQAGGSLRLSCAASGFIFEPNAMGWYRQAPGKERELVAAISWSGGSTYYADSVKGRFTISRDNAKNTVYLQMNSLKPEDTAVYYCNADITYAYYEYGSWGQGTQVTVSS | high polyreactivity
QVQLVESGGGLVQAGGSLRLSCAASGFIFEPYAMGWYRQAPGKERELVAAISSGGSTYADSVKGRFTISRDNAKNTVYLQMNSLKPEDTAVYYCAADSYYSVWGFYYWGQGTQVTVSS | low polyreactivity

Sequence | polyreactivity (PSR sort gate)
QVQLVESGGGLVQAGGSLRLSCAASGFIFERNTMGWYRQAPGKERELVATISRSAGNTYYADSVKGRFTISRDNANNTVYLQMNSLKPEDSAAYYCAKDHRTRGYDYWGQGTQVSVSS | low polyreactivity
QVQLVESGGGLVQAGGSLRLSCAASGFIFERYTMGWYRQAPGKERELVAAISDSGGSTYYADSVKGRFTISRDNAKNTVYLQMNSLKPEDTAVYYCATTQYTTYGRRYYWGQGTQVTVSS | high polyreactivity
QVQLVESGGGLVQAGGSLRLSCAASGFIFFAYAMGWYRQAPGKERELVAAISRTGGSTYYADSVKGRFTISRDNAKNTVYLQMNSLKPEDTAVYYCARPKYAWSYSRGNYWGQGTQVTVSS | high polyreactivity
QVQLVESGGGLVQAGGSLRLSCAASGFIFFEYAMGWYRQAPGKERELVAAISWSDDTTYYADSVKGRFTISRDNAKNTVYLQMNSLKPEDTAVYYCAAEKVSGQGEMDYWGQGTQVTVSS | low polyreactivity
QVQLVESGGGLVQAGGSLRLSCAASGFIFFFYAMGWYSQAPGKERELVASISWNGGSTYYADSVKGRFTISRDNAKNTVYLQMNSLKPEDTAVYYCNKDPVSLWYYSKDYTYDYWGQGTQVTVSS | low polyreactivity
QVQLVESGGGLVQAGGSLRLSCAASGFIFFGEYVMGWYRQAPGKEREFVAAISRSSATTYYADSVKGRFTISRDTAKNTVYLQMNSLKPEDTAVYYCNAGDLGRRWGMDYWGQGTQVTVSS | low polyreactivity
QVQLVESGGGLVQAGGSLRLSCAASGFIFFGEYVMGWYRQAPGKEREFVAAITDSDGSTYYADSVKGRFTISRDNAKNTVYLQMTSLKPEDTAVYYCAAERVCSDMDYWGQGTQVTVSS | low polyreactivity
QVQLVESGGGLVQAGGSLRLSCAASGFIFFLYAMGWYRQAPGKERELVARISGGGDSTSYADSVKGRFTISRDNAKNTVYLQMNSLKPEDTAVYYCAADVWGSGGELGYWGQGTQVTVSS | low polyreactivity
QVQLVESGGGLVQAGGSLRLSCAASGFIFFRYAMGWYRQAPGKERELVAAISRTGGRTYYADSVKGRFTISRDNAKNTVYLQMNSLKPEDTAVYYCAARRHSRVKYRDYWGQGTQVTVSS | high polyreactivity
QVQLVESGGGLVQAGGSLRLSCAASGFIFFYAMGWYRQAPGKERELVASIDSGVSTDYADSVKGRFTISRDNAKNTVYLQMNSLTPEDTAVYYCAADPWSSLNYDYWGQGTQVTVSS | low polyreactivity
QVQLVESGGGLVQAGGSLRLSCAASGFIFFYYAMGWYRQAHGKERELVAAISASGGSTYYADSVKGRFTISRDNAKNTVYLQMNSLKPEDTAVYYCATDPISRARLYGQRDYWGQGTQVTVSS | high polyreactivity
QVQLVESGGGLVQAGGSLRLSCAASGFIFGDNAMGWYRQAPGKERELVAAINSSGGRTYYADSVKGRFTISRDNAKNTVYLQMNSLKPEDTAVYYCNAAYGIASYGSSYYWGQGTQVTVSS | high polyreactivity
QVQLVESGGGLVQAGGSLRLSCAASGFIFGDYAMGWYRQAPGKERELVAAISRSGGRTYYADSVKGRFTISRDNAKNTVYLQMNSLKPEDTAVYYCAKSSLNIYDYWGQGTQVTVSS | high polyreactivity
QVQLVESGGGLVQAGGSLRLSCAASGFIFGGNAMGWFRQAPGKERELVAAIRSGGSTYYADSVKGRFTISRDNAKNTVYLQMNSLKPEDTAVYYCAAELYDVYDLDYWGQGTQVTVSS | low polyreactivity
QVQLVESGGGLVQAGGSLRLSCAASGFIFGGNAMGWYRQAPGNERELVARISSGGITSYADSVKGRFTISRDNAKNSVYLQMYSLKPEDTAVYYCAADDYVSTQDDSYYEYDYWGQGTQVTVSS | low polyreactivity
QVQLVESGGGLVQAGGSLRLSCAASGFIFGGYAMGWYRQAPGKERELVAAISSGGGTTYADSVKGRFTISRDNAKYTVYLQMNSLKPEDTAVYYGAAVTRDYRNDRRRQRYYYWGQGTQVTVSS | high polyreactivity
QVQLVESGGGLVQAGGSLRLSCAASGFIFGGYAMGWYRQAPGKERELVAAITWSGGNTYYADSVKGRFTISRDNAKNTVYLQMNSLKPEDTAVYYCAADYWTKYGYWGLGTQVTVSS | low polyreactivity
QVQLVESGGGLVQAGGSLRLSCAASGFIFGGYPMGWYRQAPGKERELVAAITIRGGSTSYADSVKGRFTISRDIAMNTVYLQMNSLKPEDSAVYYCNRQSRNAGGYYWGQGTQVTVSS | low polyreactivity
QVQLVESGGGLVQAGGSLRLSCAASGFIFGHYAMGWYRQAPGKERELVAGIISSGGSTHYADSVKGRFTISRDNAKNTVYLQMNSLKPEDTAVYFCAADVYRYYAGSRYYYWGQGTQVTVSS | low polyreactivity
QVQLVESGGGLVQAGGSLRLSCAASGFIFGINAMGWYRQAPGKERELVAAISKRTGSTYYADSVKGRFTISRDTAKNTVYLQMNSLKPEDTAVYYCNVVRYNGLDKYDYWGQGTQVTVSS | high polyreactivity
